Ends that are not written are not given here. * marks the point of attachment. Biotin = O=C1N[C@H]2[C@H](CS[C@H]2CCCCC(=O)*)N1
Tests used:
Assay in all cases: A/G assays
[1] = biological target: T1, GST-mouse syntenin fusion protein (Mus musculus, UniProt O08992 108-286)
T1 construct: also called Mus musculus Syntenin; not shown: glutathione S-transferase encoded by vector pGEX-3X (Pharmacia)
T1 chain: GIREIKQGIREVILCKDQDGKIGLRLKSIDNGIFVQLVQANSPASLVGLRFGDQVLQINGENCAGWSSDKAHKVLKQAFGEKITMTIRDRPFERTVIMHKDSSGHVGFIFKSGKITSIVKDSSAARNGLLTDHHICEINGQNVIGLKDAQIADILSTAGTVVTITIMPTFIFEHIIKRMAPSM

[2] = biological target: T2, PICK1 PDZ-GST fusion protein (Bos taurus (Bovine), UniProt Q2T9M1 17-105)
T2 construct: Order of GST and PDZ part and limits not seen in the excerpts

[3] = biological target: T3, GST-TAX-IP43 PDZ domain fusion protein (human, UniProt Q13884 109-180)
T3 construct: also called TAX43; not shown: glutathione S-transferase encoded by vector pGEX-3X (Pharmacia)
T3 sequence: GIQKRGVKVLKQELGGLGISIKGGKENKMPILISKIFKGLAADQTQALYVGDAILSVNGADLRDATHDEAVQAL

[4] = biological target: T4, NOS1 PDZ-GST fusion protein (Homo sapiens (Human), UniProt P29475 11-100)
T4 construct: Order of GST and PDZ part and limits not seen in the excerpts

[5] = biological target: T5, GST-prIL16 fusion protein (PDZ domains 1-2) (Homo sapiens (Human), UniProt Q14005 1111-1324)
T5 construct: also called putative interleukin 16 precursor; not shown: glutathione S-transferase encoded by vector pGEX-3X (Pharmacia)
T5 sequence: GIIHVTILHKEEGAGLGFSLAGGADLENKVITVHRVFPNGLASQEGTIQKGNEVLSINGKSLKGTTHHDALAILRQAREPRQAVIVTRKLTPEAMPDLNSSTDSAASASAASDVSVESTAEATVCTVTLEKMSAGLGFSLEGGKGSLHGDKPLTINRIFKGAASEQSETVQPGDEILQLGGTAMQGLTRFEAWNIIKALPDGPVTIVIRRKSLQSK

[6] = biological target: T6, K559 PDZ-GST fusion protein (Homo sapiens (Human), UniProt Q9Y6V0 4489-4593)
T6 construct: Order of GST and PDZ part and limits not seen in the excerpts
T6 sequence: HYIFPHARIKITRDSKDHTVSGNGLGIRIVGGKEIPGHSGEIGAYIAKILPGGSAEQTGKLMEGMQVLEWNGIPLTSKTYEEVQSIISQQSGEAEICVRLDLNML

[7] = biological target: T7, GST-DVL1 PDZ domain fusion protein (human, UniProt O14640 247-339)
T7 construct: also called human dishevelled segment polarity protein homolog; not shown: glutathione S-transferase encoded by vector pGEX-3X (Pharmacia)
T7 sequence: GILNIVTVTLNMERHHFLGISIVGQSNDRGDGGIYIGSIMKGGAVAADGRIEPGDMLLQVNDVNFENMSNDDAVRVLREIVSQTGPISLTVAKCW

[8] = biological target: T8, SP short PDZ-GST fusion protein (Homo sapiens (Human), UniProt O43464 350-435)
T8 construct: The label SP short is not explained in the excerpts
T8 sequence: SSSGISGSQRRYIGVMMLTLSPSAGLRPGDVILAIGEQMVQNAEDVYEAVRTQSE

[9] = biological target: T9, GST-PTN-4 PDZ domain fusion protein (Homo sapiens (Human), UniProt P29074 517-605)
T9 construct: also called protein-tyrosine phosphatase meg1; not shown: glutathione S-transferase encoded by vector pGEX-3X (Pharmacia)
T9 sequence: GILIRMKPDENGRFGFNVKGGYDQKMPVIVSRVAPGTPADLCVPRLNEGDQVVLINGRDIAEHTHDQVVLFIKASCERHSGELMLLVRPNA

[10] = biological target: T10, TAX-IP33 PDZ-GST fusion protein (Homo sapiens (Human), UniProt O14910 103-193)
T10 construct: Order of GST and PDZ part and limits not seen in the excerpts
T10 sequence: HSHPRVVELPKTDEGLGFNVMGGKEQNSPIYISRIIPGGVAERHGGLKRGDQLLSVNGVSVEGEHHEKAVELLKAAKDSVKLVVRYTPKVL

[11] = biological target: T11, GST-TIAM1 PDZ domain fusion protein (Homo sapiens (Human), UniProt Q13009 845-931)
T11 construct: also called TLAM1; T-lymphoma invasion and metastasis inducing protein 1; not shown: glutathione S-transferase encoded by vector pGEX-3X (Pharmacia)

[12] = biological target: T12, K316 PDZ-GST fusion protein (Homo sapiens (Human), UniProt Q14CM0 72-159)
T12 construct: Order of GST and PDZ part and limits not seen in the excerpts

[13] = biological target: T13, GST-PDZK1 fusion protein (PDZ domains 2-4) (Homo sapiens, UniProt Q5T2W1 134-457)
T13 construct: not shown: glutathione S-transferase encoded by vector pGEX-3X (Pharmacia)
T13 sequence: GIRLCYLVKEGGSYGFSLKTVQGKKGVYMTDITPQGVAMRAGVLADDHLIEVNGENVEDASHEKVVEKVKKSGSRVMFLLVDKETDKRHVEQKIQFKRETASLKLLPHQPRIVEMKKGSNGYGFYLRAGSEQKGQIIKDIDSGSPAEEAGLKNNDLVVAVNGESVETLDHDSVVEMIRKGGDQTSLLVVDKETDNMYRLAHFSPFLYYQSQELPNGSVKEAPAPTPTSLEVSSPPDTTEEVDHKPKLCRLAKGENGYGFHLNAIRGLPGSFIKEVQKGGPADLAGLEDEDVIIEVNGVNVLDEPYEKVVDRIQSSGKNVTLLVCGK

[14] = biological target: T14, GST-TAX-IP2 PDZ domain fusion protein (human, UniProt O14908 129-216)
T14 construct: also called TAX-1P2; TAX2; not shown: glutathione S-transferase encoded by vector pGEX-3X (Pharmacia)
T14 chain: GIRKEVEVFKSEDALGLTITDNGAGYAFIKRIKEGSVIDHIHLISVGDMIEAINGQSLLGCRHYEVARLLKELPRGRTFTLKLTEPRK

[15] = biological target: T15, GST-MPP1 PDZ domain fusion protein (Homo sapiens (Human), UniProt Q00013 67-152)
T15 construct: also called p55; 55 Kd erythrocyte membrane protein; not shown: glutathione S-transferase encoded by vector pGEX-3X (Pharmacia)
T15 sequence: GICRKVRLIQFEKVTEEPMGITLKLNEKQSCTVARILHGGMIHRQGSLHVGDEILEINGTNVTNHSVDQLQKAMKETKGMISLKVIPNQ

Measured: binding result

T12 sequence (Q14CM0 72-159 limits assumed): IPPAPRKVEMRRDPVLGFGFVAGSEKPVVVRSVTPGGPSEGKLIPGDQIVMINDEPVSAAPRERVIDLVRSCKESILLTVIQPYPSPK
T11 sequence (Q13009 other isoform, or with tags, fused parts or gaps): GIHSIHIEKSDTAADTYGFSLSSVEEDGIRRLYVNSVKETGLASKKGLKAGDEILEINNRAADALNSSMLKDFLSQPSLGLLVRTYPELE
T2 sequence (Q2T9M1 other isoform, or with tags, fused parts or gaps limits assumed): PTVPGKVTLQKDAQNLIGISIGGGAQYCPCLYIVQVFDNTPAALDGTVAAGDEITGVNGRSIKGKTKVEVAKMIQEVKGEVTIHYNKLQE
T4 sequence (P29475 11-100 limits assumed): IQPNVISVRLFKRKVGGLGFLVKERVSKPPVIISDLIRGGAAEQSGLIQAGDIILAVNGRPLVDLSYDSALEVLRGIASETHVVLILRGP

Biotin-SSKSKSSEESQTFFGLYKL (not fully specified, also called FasLigand; Fas ligand) [FasL C-terminal peptide AA23L-M, biotinylated]
no binding: all assays above

B1: CC CKR-3 C-terminal peptide AA43L (peptide)
peptide: Biotin-LERTSSVSPSTAEPELSIVF
notes: Only the last four residues are seen in the excerpts
no binding: all assays above

B2: CD114 (G-CSFR) C-terminal peptide AA27L (peptide)
peptide: Biotin-LNFPLLQGIRVHGMEALGSF
notes: as for B1
no binding: all assays above

Biotin-QATSENGHSARQHVVADTEL [CD34 C-terminal peptide AA7L, biotinylated]
no binding: all assays above

B3: CD5 C-terminal peptide AA49L (peptide)
peptide: Biotin-SMQPDNSSDSDYDLHGAQRL
notes: as for B1
no binding: all assays above

B4: CD62E C-terminal peptide AA48L (peptide)
peptide: Biotin-SSSQSLESDGSYQKPSYIL
notes: as for B1
no binding: all assays above
